Laboratory results from patent US20160264649A1.

Key:
Experiment in all cases: cell-based or functional assay
[1] = molecular target: HIV-1 Env of isolate VLGCB3 (subtype B) (HIV-1)
[2] = molecular target: HIV-1 Env of isolate 93TH305 (subtype B) (HIV-1)
[3] = molecular target: HIV-1 Env of isolate 98IN022 (subtype C) (HIV-1)
[4] = molecular target: HIV-1 Env of isolate TRJ04551.58 (subtype B) (HIV-1)
[5] = molecular target: HIV-1 Env of isolate APV_17 (subtype B) (HIV-1)
[6] = molecular target: HIV-1 Env of isolate MGRM-Chronic-B-017 (subtype B) (HIV-1)
[7] = molecular target: HIV-1 Env of isolate MGRM-Chronic-B-010 (subtype B) (HIV-1)
[8] = molecular target: HIV-1 Env of isolate SF162 (subtype B) (HIV-1) (UniProt P19550)
[9] = molecular target: HIV-1 Env of isolate JRFL (subtype B) (HIV-1)
[10] = molecular target: HIV-1 Env of isolate MGRM-Chronic-B-001 (subtype B) (HIV-1)
[11] = molecular target: HIV-1 Env of isolate 6535.3 (subtype B) (HIV-1)
[12] = molecular target: HIV-1 Env of isolate THR0.18 (subtype B) (HIV-1)
[13] = molecular target: HIV-1 Env of isolate 93MW959 (subtype C) (HIV-1)
[14] = molecular target: HIV-1 Env of isolate MGRM-Chronic-B-012 (subtype B) (HIV-1)
[15] = molecular target: HIV-1 Env of isolate QH0692.42 (subtype B) (HIV-1)
[16] = molecular target: HIV-1 Env of isolate SC422661.8 (subtype B) (HIV-1)
[17] = molecular target: HIV-1 Env of isolate MGRM-Chronic-B-008 (subtype B) (HIV-1)
[18] = molecular target: HIV-1 Env of isolate MGRM-Chronic-B-018 (subtype B) (HIV-1)
[19] = molecular target: HIV-1 Env of isolate JRCSF (subtype B) (HIV-1) (UniProt P20871)
[20] = molecular target: HIV-1 Env of isolate MGRM-Chronic-B-002 (subtype B) (HIV-1)
[21] = molecular target: HIV-1 Env of isolate MG RM-C-019 (subtype C) (HIV-1)
[22] = molecular target: HIV-1 Env of isolate MG RM-C-028 (subtype C) (HIV-1)
[23] = molecular target: HIV-1 Env of isolate MGRM-Chronic-B-011 (subtype B) (HIV-1)
[24] = molecular target: HIV-1 Env of isolate MGRM-Chronic-B-003 (subtype B) (HIV-1)
[25] = molecular target: HIV-1 Env of isolate MGRM-Chronic-B-004 (subtype B) (HIV-1)
[26] = molecular target: HIV-1 Env of isolate 93IN905 (subtype C) (HIV-1)
[27] = molecular target: HIV-1 Env of isolate TRO.11 (subtype B) (HIV-1)
[28] = molecular target: HIV-1 Env of isolate MGRM-Chronic-B-023 (subtype B) (HIV-1)
[29] = molecular target: HIV-1 Env of isolate APV_6 (subtype B) (HIV-1)
[30] = molecular target: HIV-1 Env of isolate MG RM-C-026 (subtype C) (HIV-1)
[31] = molecular target: HIV-1 Env of isolate NL43 (subtype B) (HIV-1)
[32] = molecular target: HIV-1 Env of isolate MG RM-C-020 (subtype C) (HIV-1)
[33] = molecular target: HIV-1 Env of isolate MGRM-Chronic-B-020 (subtype B) (HIV-1)
[34] = molecular target: HIV-1 Env of isolate CAAN.A2 (subtype B) (HIV-1)
[35] = molecular target: HIV-1 Env of isolate MG RM-C-022 (subtype C) (HIV-1)
[36] = molecular target: HIV-1 Env of isolate MG RM-C-027 (subtype C) (HIV-1)
[37] = molecular target: HIV-1 Env of isolate MG RM-C-024 (subtype C) (HIV-1)
[38] = molecular target: HIV-1 Env of isolate MG RM-C-025 (subtype C) (HIV-1)
[39] = molecular target: HIV-1 Env of isolate MGRM-Chronic-B-024 (subtype B) (HIV-1)
[40] = molecular target: HIV-1 92RW008 Env (HIV-1)
[41] = molecular target: HIV-1 Env of isolate APV_13 (subtype B) (HIV-1)
[42] = molecular target: HIV-1 Env of isolate 92 BR 020 (subtype B) (HIV-1)
[43] = molecular target: HIV-1 Env of isolate 97ZA012 (subtype C) (HIV-1)
[44] = molecular target: HIV-1 Env of isolate PVO.4 (subtype B) (HIV-1)
[45] = molecular target: HIV-1 Env of isolate MG RM-C-023 (subtype C) (HIV-1)

4993_K13 (PGT-141) (antibody), sequence (VH): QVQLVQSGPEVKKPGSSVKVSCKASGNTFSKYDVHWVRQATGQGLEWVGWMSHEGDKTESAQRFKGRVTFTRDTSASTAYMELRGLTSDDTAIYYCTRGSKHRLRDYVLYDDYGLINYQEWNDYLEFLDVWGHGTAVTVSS
4993_K13 (PGT-141) (antibody), sequence (VL): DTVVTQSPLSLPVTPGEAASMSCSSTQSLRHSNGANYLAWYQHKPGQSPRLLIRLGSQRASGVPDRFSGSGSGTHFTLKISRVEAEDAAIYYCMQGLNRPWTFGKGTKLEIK
4995_E20 (PGT-142) (antibody), sequence (VH): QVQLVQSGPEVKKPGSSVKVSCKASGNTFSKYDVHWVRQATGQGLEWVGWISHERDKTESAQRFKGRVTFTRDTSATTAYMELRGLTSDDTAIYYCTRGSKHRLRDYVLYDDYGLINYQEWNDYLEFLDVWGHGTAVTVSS
4995_P16 (PGT-145) (antibody), sequence (VH): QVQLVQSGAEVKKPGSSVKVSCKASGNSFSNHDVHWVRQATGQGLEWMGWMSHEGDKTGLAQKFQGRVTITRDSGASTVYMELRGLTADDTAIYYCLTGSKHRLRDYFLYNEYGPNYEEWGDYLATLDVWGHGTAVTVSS
4995_P16 (PGT-145) (antibody), sequence (VL): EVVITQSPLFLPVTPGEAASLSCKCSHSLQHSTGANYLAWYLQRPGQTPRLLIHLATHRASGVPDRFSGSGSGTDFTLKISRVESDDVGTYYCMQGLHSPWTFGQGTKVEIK

4993_K13 (PGT-141) (antibody) was tested, and the IC50 [1] was greater than 50 µg/mL, the IC50 [2] was greater than 50 µg/mL and the IC50 [3] was 0.001 µg/mL. It also gave an IC50 [4] greater than 50 µg/mL, an IC50 [5] of 0.59 µg/mL and an IC50 [6] of 0.147 µg/mL. For the same substance, the IC50 [7] was greater than 50 µg/mL, the IC50 [8] was greater than 50 µg/mL and the IC50 [9] was greater than 50 µg/mL. It also gave an IC50 [10] greater than 50 µg/mL, an IC50 [11] greater than 50 µg/mL and an IC50 [12] of 0.007 µg/mL. The IC50 [13] was 0.003 µg/mL, the IC50 [14] was greater than 50 µg/mL and the IC50 [15] was greater than 50 µg/mL. For the same substance, the IC50 [16] was 1.66 µg/mL, the IC50 [17] was greater than 50 µg/mL and the IC50 [18] was 0.572 µg/mL. For the same substance, the IC50 [19] was 0.009 µg/mL, the IC50 [20] was greater than 50 µg/mL and the IC50 [21] was 0.008 µg/mL. The IC50 [22] was 13.8 µg/mL, the IC50 [23] was 2.24 µg/mL and the IC50 [24] was 0.4 µg/mL. It also gave an IC50 [25] of 0.586 µg/mL, an IC50 [26] of 0.001 µg/mL and an IC50 [27] of 0.383 µg/mL. The IC50 [28] was 0.318 µg/mL, the IC50 [29] was 14.2 µg/mL and the IC50 [30] was greater than 50 µg/mL. The IC50 [31] was greater than 50 µg/mL, the IC50 [32] was 1.34 µg/mL and the IC50 [33] was greater than 50 µg/mL. The IC50 [34] was greater than 50 µg/mL, the IC50 [35] was 0.381 µg/mL and the IC50 [36] was 3.27 µg/mL. For the same substance, the IC50 [37] was 0.101 µg/mL, the IC50 [38] was 0.247 µg/mL and the IC50 [39] was 0.011 µg/mL. It also gave an IC50 [40] of 0.579 µg/mL, an IC50 [41] greater than 50 µg/mL and an IC50 [42] of 20.3 µg/mL. The IC50 [43] was greater than 50 µg/mL, the IC50 [44] was 0.113 µg/mL and the IC50 [45] was 0.153 µg/mL.
With 4995_E20 (PGT-142) (antibody) the IC50 [1] was greater than 50 µg/mL, the IC50 [2] was 5.86 µg/mL and the IC50 [3] was 0.001 µg/mL. It also gave an IC50 [4] greater than 50 µg/mL, an IC50 [5] of 0.628 µg/mL and an IC50 [6] of 0.076 µg/mL. The IC50 [7] was greater than 50 µg/mL, the IC50 [8] was greater than 50 µg/mL and the IC50 [9] was greater than 50 µg/mL. For the same substance, the IC50 [10] was greater than 50 µg/mL, the IC50 [11] was greater than 50 µg/mL and the IC50 [12] was 0.012 µg/mL. The IC50 [13] was 0.001 µg/mL, the IC50 [14] was greater than 50 µg/mL and the IC50 [15] was greater than 50 µg/mL. For the same substance, the IC50 [16] was 3.15 µg/mL, the IC50 [17] was greater than 50 µg/mL and the IC50 [18] was 0.323 µg/mL. For the same substance, the IC50 [19] was 0.01 µg/mL, the IC50 [20] was greater than 50 µg/mL and the IC50 [21] was 0.003 µg/mL. It also gave an IC50 [22] of 2.12 µg/mL, an IC50 [23] of 0.994 µg/mL and an IC50 [24] of 0.484 µg/mL. It also gave an IC50 [25] of 0.172 µg/mL, an IC50 [26] of 0.001 µg/mL and an IC50 [27] of 0.27 µg/mL. It also gave an IC50 [28] of 0.486 µg/mL, an IC50 [29] of 4.72 µg/mL and an IC50 [30] greater than 50 µg/mL. For the same substance, the IC50 [31] was greater than 50 µg/mL, the IC50 [32] was 0.446 µg/mL and the IC50 [33] was greater than 50 µg/mL. The IC50 [34] was greater than 50 µg/mL, the IC50 [35] was 0.086 µg/mL and the IC50 [36] was 0.792 µg/mL. The IC50 [37] was 0.03 µg/mL, the IC50 [38] was 0.183 µg/mL and the IC50 [39] was 0.005 µg/mL. The IC50 [40] was 0.447 µg/mL, the IC50 [41] was greater than 50 µg/mL and the IC50 [42] was 15.1 µg/mL. The IC50 [43] was greater than 50 µg/mL, the IC50 [44] was 0.066 µg/mL and the IC50 [45] was 0.087 µg/mL.
Work on 4995_P16 (PGT-145) (antibody) yielded an IC50 [1] greater than 50 µg/mL, an IC50 [2] of 0.032 µg/mL and an IC50 [3] of 0.005 µg/mL. For the same substance, the IC50 [4] was greater than 50 µg/mL, the IC50 [5] was 0.488 µg/mL and the IC50 [6] was 0.054 µg/mL. The IC50 [7] was greater than 50 µg/mL, the IC50 [8] was greater than 50 µg/mL and the IC50 [9] was 30.4 µg/mL. The IC50 [10] was 3.22 µg/mL, the IC50 [11] was greater than 50 µg/mL and the IC50 [12] was 0.013 µg/mL. For the same substance, the IC50 [13] was 1.2 µg/mL, the IC50 [14] was 9.06 µg/mL and the IC50 [15] was greater than 50 µg/mL. The IC50 [16] was 0.079 µg/mL, the IC50 [17] was 1.9 µg/mL and the IC50 [18] was 0.013 µg/mL. For the same substance, the IC50 [19] was 0.002 µg/mL, the IC50 [20] was 3.67 µg/mL and the IC50 [21] was 0.005 µg/mL. The IC50 [22] was 0.099 µg/mL, the IC50 [23] was 0.206 µg/mL and the IC50 [24] was 0.045 µg/mL. The IC50 [25] was 0.023 µg/mL, the IC50 [26] was 0.002 µg/mL and the IC50 [27] was 0.044 µg/mL. It also gave an IC50 [28] of 0.009 µg/mL, an IC50 [29] of 0.104 µg/mL and an IC50 [30] greater than 50 µg/mL. The IC50 [31] was 0.006 µg/mL, the IC50 [32] was 0.712 µg/mL and the IC50 [33] was greater than 50 µg/mL. It also gave an IC50 [34] of 7.08 µg/mL, an IC50 [35] of 0.492 µg/mL and an IC50 [36] of 0.095 µg/mL. It also gave an IC50 [37] of 0.174 µg/mL, an IC50 [38] of 0.044 µg/mL and an IC50 [39] of 0.018 µg/mL. It also gave an IC50 [40] of 0.4 µg/mL, an IC50 [41] of 0.337 µg/mL and an IC50 [42] of 1.05 µg/mL. It also gave an IC50 [43] of 0.915 µg/mL, an IC50 [44] of 0.299 µg/mL and an IC50 [45] of 0.201 µg/mL.
